Results taken from patent US7022313B2, “Hydrogel particle formulation” (PowderJect Research Ltd., priority 1999, dated 2006).

Assay: LDH specific activity after lyophilization (colorimetric endpoint assay)
Type: biochemical
Description: Lactate dehydrogenase (LDH) was obtained from Sigma Chemicals (L1254; Lot 96H9568). Bio-Gel A15M was obtained from Bio-Rad (Cat. No. 151-1050) as a powder having a MMAD of 20-150 μm. LDH activity was measured using an endpoint, colorimetric assay (Sigma No. 500). All other reagents were obtained from Fisher Scientific and were ACS-grade or better.
The Bio-Gel A15M resin was washed with water to remove preservative and then poured into a disposable 1×10 cm column to a final column volume of approximately 5 mL. The column was equilibrated with 5 mL sodium citrate, pH 6 containing 5% (w/v) mannitol. LDH was dissolved in the same buffer at 2 mg/mL final concentration. A 5 mL sample of this solution was loaded to the column and allowed to fully penetrate.
The resin was emptied from the column and lyophilized. After lyophilization the resin was re-suspended in water and poured back into the column. The column was then eluted with a 5 mL portion of the buffer. […]
The protein concentration of each solution was determined by absorbance at 280 nm using a Hewlett-Packard UV-VIS Spectrophotometer. […] The absorbance of the color formed is inversely proportional to the LDH activity. LDH specific activity was calculated by dividing the […].

## Lactate dehydrogenase [LDH]
LDH loaded on agarose beads (Bio-Gel A15M), lyophilized, eluted, preliminary
  specific activity, % of the starting material: about 40%
LDH recovered after lyophilization from solution
  specific activity, % of the starting material: 98%
